3 molecules from US20260306683 (published 2026) can be followed below.

Common to all, as to test: ELISA
(ELISA stands for enzyme-linked immunosorbent assay.)

Assay [1] addresses T1, misfolded (denatured) human SOD1 (human, UniProt P00441).
The target in assay [2] is T1, misfolded (denatured) human SOD1. This is another data set of the same source.
Assay [3] has the same target. This is another data set of the same source.

Where two headings read alike, the source gives them in different places.

T1 sequence (P00441 2-154): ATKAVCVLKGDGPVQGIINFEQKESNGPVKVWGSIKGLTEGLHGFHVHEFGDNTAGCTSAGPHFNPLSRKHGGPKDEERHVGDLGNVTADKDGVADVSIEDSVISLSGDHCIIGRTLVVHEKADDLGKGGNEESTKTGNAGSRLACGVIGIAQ

B1: Degly-natZr-DFO-AP-101 (antibody, V domains shown)
VH: QVQLVQSGAEVKKPGASVTLSCKASGYTFTAYYIHWVRQAREQGLEWMGVINPSTGTTFYAQNFPDRVSVTRDTSTSTVFMELHNLKSEDTAVYYCARAISEHGSGSYSPYYWGQGTLVTVSS
VL: SYELTQPPSVSVSLGQMAAITCSGEALPKKYGYWYQQKPGQVPVLLIYRDVERPSGVPDRFSGSSSGTMVTLTISGVQAEDEADYYCLSADSSGTWVFGGGTKLTVLG
modifications: EndoS2 deglycosylated, DFO conjugated on lysines (0.6:1.0), natZr labelled
Broadly, the EC50 is the midpoint of the concentration-response curve. The low end stands for an effect from little substance, the high end for a need for much substance. In assay [1], B1 yielded an EC50 of 2400 pM.

B2: natZr-DFO-AP-101 (antibody, V domains shown)
VH: QVQLVQSGAEVKKPGASVTLSCKASGYTFTAYYIHWVRQAREQGLEWMGVINPSTGTTFYAQNFPDRVSVTRDTSTSTVFMELHNLKSEDTAVYYCARAISEHGSGSYSPYYWGQGTLVTVSS
VL: SYELTQPPSVSVSLGQMAAITCSGEALPKKYGYWYQQKPGQVPVLLIYRDVERPSGVPDRFSGSSSGTMVTLTISGVQAEDEADYYCLSADSSGTWVFGGGTKLTVLG
modifications: DFO chelator conjugated on lysines (DFO:antibody 1.1:1.0), natZr labelled
B2: the values for the EC50 in assay [2] and in assay [1] were 500 pM and 300 pM, respectively.

B3: AP-101 (non-modified alpha-miSOD1) (antibody, V domains shown)
VH: QVQLVQSGAEVKKPGASVTLSCKASGYTFTAYYIHWVRQAREQGLEWMGVINPSTGTTFYAQNFPDRVSVTRDTSTSTVFMELHNLKSEDTAVYYCARAISEHGSGSYSPYYWGQGTLVTVSS
VL: SYELTQPPSVSVSLGQMAAITCSGEALPKKYGYWYQQKPGQVPVLLIYRDVERPSGVPDRFSGSSSGTMVTLTISGVQAEDEADYYCLSADSSGTWVFGGGTKLTVLG
In turn, B3 displayed an EC50 in assay [3] of 200 pM.
